Measurements from patent US20250376518A1 (UNIVERSITE DE MONTPELLIER, published 2025).

Tests used:
[1] = molecular target: T1, rat SNAP-tagged mGlu2 receptor (wild-type rat mGlu2 subunit with an HA-tag and a SNAP inserted just after the … (rat, UniProt P31421 19-872, SNAP tag labelled with SNAP-Lumi4-Tb in the TR-FRET binding assay)); test: TR-FRET saturation binding on HEK293 cells with Lumi4-Tb-labelled rat SNAP-mGlu2, anti-6His-d2; active conformation (1 uM LY379268)
T1 construct: whole, on cells; Transiently transfected HEK293 cells; also called SNAP-mGlu2; mGluR2; not shown: HA-tag inserted just after the signal peptide; SNAP tag inserted just after the signal peptide
T1 sequence (P31421 19-872): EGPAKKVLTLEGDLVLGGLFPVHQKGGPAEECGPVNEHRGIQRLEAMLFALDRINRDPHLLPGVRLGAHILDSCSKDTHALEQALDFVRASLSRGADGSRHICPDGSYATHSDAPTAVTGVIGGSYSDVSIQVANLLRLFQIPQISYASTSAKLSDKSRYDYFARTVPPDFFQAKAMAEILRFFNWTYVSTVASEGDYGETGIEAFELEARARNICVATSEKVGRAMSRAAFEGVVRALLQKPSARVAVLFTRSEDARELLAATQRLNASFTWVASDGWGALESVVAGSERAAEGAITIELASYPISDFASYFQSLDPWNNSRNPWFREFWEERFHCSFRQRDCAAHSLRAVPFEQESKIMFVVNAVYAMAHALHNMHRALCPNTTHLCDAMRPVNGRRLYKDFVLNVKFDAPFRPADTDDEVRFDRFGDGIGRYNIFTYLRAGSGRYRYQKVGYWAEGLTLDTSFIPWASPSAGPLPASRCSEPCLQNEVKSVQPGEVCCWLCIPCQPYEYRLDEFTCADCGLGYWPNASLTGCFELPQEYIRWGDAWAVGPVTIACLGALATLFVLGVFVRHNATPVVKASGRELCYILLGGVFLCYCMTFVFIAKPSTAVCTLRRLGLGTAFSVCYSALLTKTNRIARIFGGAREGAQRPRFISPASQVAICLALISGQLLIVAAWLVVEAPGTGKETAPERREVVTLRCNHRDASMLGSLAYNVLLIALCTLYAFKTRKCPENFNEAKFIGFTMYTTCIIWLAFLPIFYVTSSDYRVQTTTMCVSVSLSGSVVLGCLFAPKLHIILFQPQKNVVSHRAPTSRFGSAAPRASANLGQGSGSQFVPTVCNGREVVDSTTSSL
Experimental: (§1) Each datapoint represents the mean±s.d. of an individual experiment performed in triplicate.
(§2) Binding experiments by TR-FRET. HEK293 cells (ATCC CRL-1573) were transfected with rat SNAP-tagged mGlu2 receptors (Maurel et al. Nature Methods 2008). 24 h after transfection, cells were labeled in 150 mm cell culture plate with 100 nM SNAP-Lumi4Tb in DMEM-GlutaMAX for 1 h at 37° C., and then washed 3 times with Krebs buffer (10 mM Hepes pH7.4, 146 mM NaCl, 4.2 mM KCl, 1 mM CaCl2, 0.5 mM MgCl2, 5.6 mM glucose and bovine serum albumin 0.1%). Cells were detached using cell dissociation buffer (Sigma aldrich) transferred at 10 000 cells per well in a white 384-well plate (Greiner bio-one, PS, F-bottom, small volume, Hibase, medium binding). Increasing concentration of His-tagged nanobodies together with either 1 μM LY379268 (Tocris, Bio-techne, France) or 1 μM LY341495 (Tocris, Bio-techne, France) and with 200 nM of anti-6His-d2 (Tocris, Bio-techne, France) were applied on Lumi4Tb-labeled cells in a final volume of 20 μL and incubated overnight at 20° C. FRET signal was determined by measuring the sensitized acceptor emission (665 nm) and Tb donor emission (620 nm) using a 50 μs delay and 450 us integration time upon excitation at 337 nm on a PHERAstar FS plate-reader (BMG LabTech, Ortenberg, Germany). TR-FRET (or HTRF) ratio (665 nm/620 nm×10⁴, Cisbio patent 8 U.S. Pat. No. 5,527,684) was calculated for preventing interferences due to medium variability and chemical compound or to normalize experiments when using cells expressing different receptor levels.

[2] = molecular target: T1, rat SNAP-tagged mGlu2 receptor …; test: cell-based or functional assay
[3] = molecular target: T1, rat SNAP-tagged mGlu2 receptor …; test: TR-FRET saturation binding on HEK293 cells with Lumi4-Tb-labelled rat SNAP-mGlu2, anti-6His-d2; inactive conformation (1 uM LY341495)
Experimental: as §1, §2

[4] = molecular target: T1, rat SNAP-tagged mGlu2 receptor …; test: apparent affinity, TR-FRET saturation binding on HEK293 cells with SNAP-mGlu2, in the presence of agonist LY379268 1 uM
Experimental: as §2, with “Increasing concentration of His-tagged nanobodies together with either 1 μM LY379268 (Tocris, Bio-techne, France) or 1 μM LY341495 (Tocris, Bio-techne, France) and with 200 nM of anti-6His-d2 (Tocris, Bio-techne, France) were applied on Lumi4Tb-labeled cells in a final volume of 20 μL and incubated overnight at 20° C.” left out, “levels. […]” for “levels.”

[5] = molecular target: T1, rat SNAP-tagged mGlu2 receptor …; test: TR-FRET saturation binding on HEK293 cells with SNAP-mGlu2, in the presence of agonist LY379268 1 uM; reference IGF1168
Experimental: as §2, with “Increasing concentration of His-tagged nanobodies together with either 1 μM LY379268 (Tocris, Bio-techne, France) or 1 μM LY341495 (Tocris, Bio-techne, France) and with 200 nM of anti-6His-d2 (Tocris, Bio-techne, France) were applied on Lumi4Tb-labeled cells in a final volume of 20 μL and incubated overnight at 20° C.” left out, “levels. […]” for “levels.”

[6] = molecular target: T1, rat SNAP-tagged mGlu2 receptor …; test: cell-based or functional assay; remark: listed apart in the source
[7] = molecular target: T2, mouse mGlu2 receptor in brain tissue sections of wild-type C57BL/6J mice (mouse, UniProt Q14BI2 19-872); test: ex vivo immunohistofluorescence on mouse brain sections; no labeling in sections from mGlu2-/- mouse
T2 construct: whole, on cells; Endogenous receptor in fixed tissue sections; mGlu2-/- mouse sections were the negative control
T2 sequence (Q14BI2 19-872): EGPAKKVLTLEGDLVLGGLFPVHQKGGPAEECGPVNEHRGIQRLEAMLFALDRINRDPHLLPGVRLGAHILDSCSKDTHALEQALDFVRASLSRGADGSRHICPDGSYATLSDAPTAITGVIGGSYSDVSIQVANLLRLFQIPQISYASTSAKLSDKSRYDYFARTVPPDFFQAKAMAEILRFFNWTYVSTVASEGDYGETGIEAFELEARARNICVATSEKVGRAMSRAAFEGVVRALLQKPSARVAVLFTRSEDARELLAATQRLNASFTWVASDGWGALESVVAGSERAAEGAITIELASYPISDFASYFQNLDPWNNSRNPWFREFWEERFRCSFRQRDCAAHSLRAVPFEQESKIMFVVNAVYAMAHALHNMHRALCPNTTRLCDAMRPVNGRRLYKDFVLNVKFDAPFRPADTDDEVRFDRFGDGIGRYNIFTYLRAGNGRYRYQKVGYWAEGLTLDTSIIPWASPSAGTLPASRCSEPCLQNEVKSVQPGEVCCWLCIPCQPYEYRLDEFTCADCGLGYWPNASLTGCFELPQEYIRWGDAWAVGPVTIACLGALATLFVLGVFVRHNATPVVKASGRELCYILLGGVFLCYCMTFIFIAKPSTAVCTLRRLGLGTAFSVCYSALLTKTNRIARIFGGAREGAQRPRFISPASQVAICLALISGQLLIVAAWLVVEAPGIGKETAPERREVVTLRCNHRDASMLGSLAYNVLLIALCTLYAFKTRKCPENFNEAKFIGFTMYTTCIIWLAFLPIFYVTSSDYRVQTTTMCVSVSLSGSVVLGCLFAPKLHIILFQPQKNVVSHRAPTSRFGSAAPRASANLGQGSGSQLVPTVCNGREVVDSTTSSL
Experimental: Histological processing of brains. Wild-type C57BL/6J mice were purchased from Janvier Labs and brains from mGlu2−/− mice were kindly provided by Dr. Gonzalez-Maeso. Mice were anesthetized (Euthasol Vet 8%, Alcyon, Pau, France) and sacrificed by a cardiac perfusion of 4% paraformaldehyde (PFA). Brains were extracted and fixed in a 4% PFA solution (Euromedex, Souffelweyersheim, France) overnight at 4° C. Brains were rinsed in PBS and cryoprotected in a 30% sucrose solution for 4 days at 4° C. Brains were then included in OCT (Tissue-Tek, Sakura Finetek, Villeneuve d′Asq, France), quickly frozen in acetone chilled on dry ice and conserved at −80° C. until use. Frozen brains included in OCT, were put at −20° C. 24 h prior cryo-sectioning. They were then mounted on a cryostat (Leica, Nanterre, France) and 16 um coronal or sagittal sections were performed and directly mounted on Superfrost Plus glass slides (Microm) and kept at −20° C., until use. For immunohistofluorescence experiments, coronal and sagittal brain tissue sections of WT and mGlu2^{-/-} mice were blocked 1 h at 25° C. with a blocking solution (3% BSA, 0.1% Triton X100 in PBS) and incubated with IGF1202-d2 (200 nM), overnight at 4° C., to label mGlu2 receptors. Sections were washed with PBS with distilled water and mounted using […]

pKd [1] | pEC50 of the PAM effect on G protein coupling (IP1 accumulation with 0.6 nM LY379268, EC20) [2] | pKd [3] | Kd [4] | fold increase in the apparent affinity compared to IGF1168 [5] | pEC50, PAM potency (IP1 accumulation) [6] | binding result [7] | Binder
8.23 -log10 M | 7.2 -log10 M | – | – | – | – | – | IGF-1262 (IGF-1168 HcAb IGF-1168) (VHH) QVQLVQSGGGLVQAGGSLRLSCAASVRFFSINTMGWYRQAPGKQRELVADITSSGSTNYADSGKGRFTISRDNAKNTVYLQMNRLKPEDTAVYYCHADYKYTTHNTAWGQGTQVTVSSEPKIPQPQPKPQPQPQPQPQPKPQPKPEPQVQLVQSGGGLVQAGGSLRLSCAASVRFFSINTMGWYRQAPGKQRELVADITSSGSTNYADSGKGRFTISRDNAKNTVYLQMNRLKPEDTAVYYCHADYKYTTHNTAWGQGTQVTVSSLEHHHHHH
9.34 -log10 M | 8.25 -log10 M | 8.95 -log10 M | – | – | – | – | IGF-1201 (IGF-1168 GS IGF-1159) (VHH, Bivalent biparatopic nanobody, two VHH in tandem) QVQLVQSGGGLVQAGGSLRLSCAASVRFFSINTMGWYRQAPGKQRELVADITSSGSTNYADSGKGRFTISRDNAKNTVYLQMNRLKPEDTAVYYCHADYKYTTHNTAWGQGTQVTVSSGGGGSGGGGSGGGGSQVQLVQSGGGLVQAGGSLRLSCAASGRTFSSFAMAWFRQAPGKEREFVAAISWSGSTGHADSVKGRFTITRDNAKNTVFLQMNSLKPEDTAVYYCALGKGSSYYYSPSGYDYWGQGTQVTVSSLEHHHHHH
9.27 -log10 M | 8.81 -log10 M | 8.87 -log10 M | 0.3 nM | 10 fold | 9.16 -log10 M | – | IGF-1202 (IGF-1168 HcAb IGF-1159), biparatopic IGF1202-tag6xHIS (VHH) QVQLVQSGGGLVQAGGSLRLSCAASVRFFSINTMGWYRQAPGKQRELVADITSSGSTNYADSGKGRFTISRDNAKNTVYLQMNRLKPEDTAVYYCHADYKYTTHNTAWGQGTQVTVSSEPKIPQPQPKPQPQPQPQPQPKPQPKPEPQVQLVQSGGGLVQAGGSLRLSCAASGRTFSSFAMAWFRQAPGKEREFVAAISWSGSTGHADSVKGRFTITRDNAKNTVFLQMNSLKPEDTAVYYCALGKGSSYYYSPSGYDYWGQGTQVTVSSLEHHHHHH
– | – | – | – | – | – | binds | IGF1202-d2 (red-labeled IGF1202) (VHH, d2 fluorophore coupled with d2-NHS, conditions set for 2 to 3 fluorophores per nanobody; sites not stated, also called red-labled IGF1202) QVQLVQSGGGLVQAGGSLRLSCAASVRFFSINTMGWYRQAPGKQRELVADITSSGSTNYADSGKGRFTISRDNAKNTVYLQMNRLKPEDTAVYYCHADYKYTTHNTAWGQGTQVTVSSEPKIPQPQPKPQPQPQPQPQPKPQPKPEPQVQLVQSGGGLVQAGGSLRLSCAASGRTFSSFAMAWFRQAPGKEREFVAAISWSGSTGHADSVKGRFTITRDNAKNTVFLQMNSLKPEDTAVYYCALGKGSSYYYSPSGYDYWGQGTQVTVSSLEHHHHHH
8.77 -log10 M | 7.94 -log10 M | 8.49 -log10 M | – | – | – | – | IGF-1252 (IGF-1159 HcAb IGF-1168) (VHH, Bivalent biparatopic nanobody, two VHH in tandem) QVQLVQSGGGLVQAGGSLRLSCAASGRTFSSFAMAWFRQAPGKEREFVAAISWSGSTGHADSVKGRFTITRDNAKNTVFLQMNSLKPEDTAVYYCALGKGSSYYYSPSGYDYWGQGTQVTVSSEPKIPQPQPKPQPQPQPQPQPKPQPKPEPQVQLVQSGGGLVQAGGSLRLSCAASVRFFSINTMGWYRQAPGKQRELVADITSSGSTNYADSGKGRFTISRDNAKNTVYLQMNRLKPEDTAVYYCHADYKYTTHNTAWGQGTQVTVSSLEHHHHHH
8.99 -log10 M | 7.65 -log10 M | 8.54 -log10 M | – | – | – | – | IGF-1251 (IGF-1159 GS IGF-1168) (VHH, Bivalent biparatopic nanobody, two VHH in tandem) QVQLVQSGGGLVQAGGSLRLSCAASGRTFSSFAMAWFRQAPGKEREFVAAISWSGSTGHADSVKGRFTITRDNAKNTVFLQMNSLKPEDTAVYYCALGKGSSYYYSPSGYDYWGQGTQVTVSSGGGGSGGGGSGGGGSQVQLVQSGGGLVQAGGSLRLSCAASVRFFSINTMGWYRQAPGKQRELVADITSSGSTNYADSGKGRFTISRDNAKNTVYLQMNRLKPEDTAVYYCHADYKYTTHNTAWGQGTQVTVSSLEHHHHHH
8.51 -log10 M | 7.62 -log10 M | – | – | – | – | – | IGF-1261 (IGF-1168 GS IGF-1168) (VHH) QVQLVQSGGGLVQAGGSLRLSCAASVRFFSINTMGWYRQAPGKQRELVADITSSGSTNYADSGKGRFTISRDNAKNTVYLQMNRLKPEDTAVYYCHADYKYTTHNTAWGQGTQVTVSSGGGGSGGGGSGGGGSQVQLVQSGGGLVQAGGSLRLSCAASVRFFSINTMGWYRQAPGKQRELVADITSSGSTNYADSGKGRFTISRDNAKNTVYLQMNRLKPEDTAVYYCHADYKYTTHNTAWGQGTQVTVSSLEHHHHHH
– | – | – | 4.93 nM | – | 7.22 -log10 M | – | IGF-1168 nanobody (VHH, PAM nanobody, mGlu2 specific; not shown: His tag (nanobodies in the assay are His-tagged)) VHH: QVQLVQSGGGLVQAGGSLRLSCAASVRFFSINTMGWYRQAPGKQRELVADITSSGSTNYADSGKGRFTISRDNAKNTVYLQMNRLKPEDTAVYYCHADYKYTTHNTAWGQGTQVTVSS
